In the supplement of paper PMC5998384:

How the values were obtained:
HeLa Kyoto [1] = test: solubility in G1/S (NP-40 vs SDS abundance) (log2 ratio); higher = more soluble; conditions: cell cycle stage: G1/S
HeLa Kyoto [2] = test: melting temperature (median over replicates), in situ; higher = more thermally stable
HeLa Kyoto [3] = test: solubility change mitosis vs G1/S (difference of NP-40 vs SDS log2 ratios) (log2 ratio difference); higher = more soluble in mitosis
HeLa Kyoto [4] = test: thermal stability score vs G1/S (z-score of summed log2 fold changes over temperatures); higher = more thermally stable than in G1/S
[5] = cell cycle stage: early G1 (4.5 h after nocodazole release)
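Throughout, for melting temperature (median over replicates), in situ: HeLa Kyoto cells synchronized by double thymidine or nocodazole block, proteins quantified by TMT10plex mass spectrometry, three independent biological replicates.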
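Throughout, for solubility change mitosis vs G1/S (difference of NP-40 vs SDS log2 ratios): synchronized HeLa Kyoto cells (double thymidine block for G1/S, nocodazole release for mitosis), protein amounts in NP-40 versus SDS lysates quantified by mass spectrometry, three biological replicates.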
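Throughout, for solubility in G1/S (NP-40 vs SDS abundance): HeLa Kyoto cells arrested at G1/S by double thymidine block, proteins quantified by TMT10plex mass spectrometry in mild NP-40 versus SDS extracts, three biological replicates.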
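Throughout, for thermal stability score vs G1/S (z-score of summed log2 fold changes over temperatures): synchronized HeLa Kyoto cells, proteins quantified by TMT10plex mass spectrometry, three biological replicates, mitosis taken 0.5 h after nocodazole release, G1/S directly after double thymidine block.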

Row | Sequence | solubility in G1/S (log2) (HeLa Kyoto [1]) | melting temperature (HeLa Kyoto [2]; cell cycle stage: G1/S) | melting temperature (HeLa Kyoto [2]; cell cycle stage: mitosis) | solubility change mitosis (log2) (HeLa Kyoto [3]) | thermal stability score (HeLa Kyoto [4]; [5]) | thermal stability score (HeLa Kyoto [4]; cell cycle stage: mitosis)
1 | MRPRKAFLLLLLLGLVQLLAVAGAEGPDEDSSNRENAIEDEEEEEEEDDDEEEDDLEVKEENGVLVLNDANFDNFVADKDTVLLEFYAPWCGHCKQFAPEYEKIANILKDKDPPIPVAKIDATSASVLASRFDVSGYPTIKILKKGQAVDYEGSRTQEEIVAKVREVSQPDWTPPPEVTLVLTKENFDEVVNDADIILVEFYAPWCGHCKKLAPEYEKAAKELSKRSPPIPLAKVDATAETDLAKRFDVSGYPTLKIFRKGRPYDYNGPREKYGIVDYMIEQSGPPSKEILTLKQVQEFLKDGDDVIIIGVFKGESDPAYQQYQDAANNLREDYKFHHTFSTEIAKFLKVSQGQLVVMQPEKFQSKYEPRSHMMDVQGSTQDSAIKDFVLKYALPLVGHRKVSNDAKRYTRRPLVVVYYSVDFSFDYRAATQFWRSKVLEVAKDFPEYTFAIADEEDYAGEVKDLGLSESGEDVNAAILDESGKKFAMEPEEFDSDTLREFVTAFKKGKLKPVIKSQPVPKNNKGPVKVVVGKTFDSIVMDPKKDVLIEFYAPWCGHCKQLEPVYNSLAKKYKGQKGLVIAKMDATANDVPSDRYKVEGFPTIYFAPSGDKKNPVKFEGGDRDLEHLSKFIEEHATKLSRTKEEL [PDIA4] | 0.264 | 53.9 °C | 54.4 °C | -0.0655 | 3.99 | 4.66
2 | MRPVRLMKVFVTRRIPAEGRVALARAADCEVEQWDSDEPIPAKELERGVAGAHGLLCLLSDHVDKRILDAAGANLKVISTMSVGIDHLALDEIKKRGIRVGYTPDVLTDTTAELAVSLLLTTCRRLPEAIEEVKNGGWTSWKPLWLCGYGLTQSTVGIIGLGRIGQAIARRLKPFGVQRFLYTGRQPRPEEAAEFQAEFVSTPELAAQSDFIVVACSLTPATEGLCNKDFFQKMKETAVFINISRGDVVNQDDLYQALASGKIAAAGLDVTSPEPLPTNHPLLTLKNCVILPHIGSATHRTRNTMSLLAANNLLAGLRGEPMPSELKL [GRHPR] | 0.0329 | 54.3 °C | 55 °C | -0.204 | 0.108 | 0.371
3 | MRRLNRKKTLSLVKELDAFPKVPESYVETSASGGTVSLIAFTTMALLTIMEFSVYQDTWMKYEYEVDKDFSSKLRINIDITVAMKCQYVGADVLDLAETMVASADGLVYEPTVFDLSPQQKEWQRMLQLIQSRLQEEHSLQDVIFKSAFKSTSTALPPREDDSSQSPNACRIHGHLYVNKVAGNFHITVGKAIPHPRGHAHLAALVNHESYNFSHRIDHLSFGELVPAIINPLDGTEKIAIDHNQMFQYFITVVPTKLHTYKISADTHQFSVTERERIINHAAGSHGVSGIFMKYDLSSLMVTVTEEHMPFWQFFVRLCGIVGGIFSTTGMLHGIGKFIVEIICCRFRLGSYKPVNSVPFEDGHTDNHLPLLENNTH [ERGIC2] | -0.0386 | 54.8 °C | 53.8 °C | -0.216 | -2.27 | -7.02
4 | MRRMWATQGLAVALALSVLPGSRALRPGDCEVCISYLGRFYQDLKDRDVTFSPATIENELIKFCREARGKENRLCYYIGATDDAATKIINEVSKPLAHHIPVEKICEKLKKKDSQICELKYDKQIDLSTVDLKKLRVKELKKILDDWGETCKGCAEKSDYIRKINELMPKYAPKAASARTDL [MANF] | 0.682 | 54.1 °C | 52.7 °C | 0.0195 | -0.366 | -3.76
5 | MRRSEVLAEESIVCLQKALNHLREIWELIGIPEDQRLQRTEVVKKHIKELLDMMIAEEESLKERLIKSISVCQKELNTLCSELHVEPFQEEGETTILQLEKDLRTQVELMRKQKKERKQELKLLQEQDQELCEILCMPHYDIDSASVPSLEELNQFRQHVTTLRETKASRREEFVSIKRQIILCMEALDHTPDTSFERDVVCEDEDAFCLSLENIATLQKLLRQLEMQKSQNEAVCEGLRTQIRELWDRLQIPEEEREAVATIMSGSKAKVRKALQLEVDRLEELKMQNMKKVIEAIRVELVQYWDQCFYSQEQRQAFAPFCAEDYTESLLQLHDAEIVRLKNYYEVHKELFEGVQKWEETWRLFLEFERKASDPNRFTNRGGNLLKEEKQRAKLQKMLPKLEEELKARIELWEQEHSKAFMVNGQKFMEYVAEQWEMHRLEKERAKQERQLKNKKQTETEMLYGSAPRTPSKRRGLAPNTPGKARKLNTTTMSNATANSSIRPIFGGTVYHSPVSRLPPSGSKPVAASTCSGKKTPRTGRHGANKENLELNGSILSGGYPGSAPLQRNFSINSVASTYSEFAKDPSLSDSSTVGLQRELSKASKSDATSGILNSTNIQS [PRC1] | 0.0588 | 47.1 °C | 49 °C | 0.431 | 5.68 | 7.18
